Among the data in patent US20050019345A1 (published 2005) are OD492 values, retold here.

In experiment [1] the target is BSA (bovine) (UniProt P02769). Nature of the experiment: enzyme-linked binding assay (ELISA format), non-conjugated HRPO on immobilized BSA.
Experiment [2] addresses T1, human collagen type I (human, UniProt P02452 162-1218; P08123 80-1119, limits assumed).
T1 construct: Bought (Gibco BRL), immobilized on plates; also called type I collagen; collagen type 1
The experiment can be described thus: enzyme-linked binding assay (ELISA format), non-conjugated HRPO on immobilized matrix protein.
Description: (§1) After purification and labeling, it was subjected to an enzyme-linked binding assay with the Immobilized human matrix proteins, collagen type 1, fibronectin and laminin.
(§2) Peroxidase-labeled Cpa-maltose binding protein fusion and recombinant purified maltose-binding protein (for control of specific binding of the bacteria) were added to the wells for 2 h at room temperature. Non-conjugated peroxidase at a 1:300 dilution in PBS-T was used as a negative control. […] All assays were repeated on at least three independent occasions.

The target of experiment [3] is human laminin (human). The description is as above.
Description: as §1, §2
In experiment [4] the target is T2, human fibronectin (human, UniProt P02751 32-2477, limits assumed).
T2 construct: Bought, immobilized on plates
Described as above.
Description: as §1, §2

Sequence of BSA (bovine) (P02769 25-607 limits assumed): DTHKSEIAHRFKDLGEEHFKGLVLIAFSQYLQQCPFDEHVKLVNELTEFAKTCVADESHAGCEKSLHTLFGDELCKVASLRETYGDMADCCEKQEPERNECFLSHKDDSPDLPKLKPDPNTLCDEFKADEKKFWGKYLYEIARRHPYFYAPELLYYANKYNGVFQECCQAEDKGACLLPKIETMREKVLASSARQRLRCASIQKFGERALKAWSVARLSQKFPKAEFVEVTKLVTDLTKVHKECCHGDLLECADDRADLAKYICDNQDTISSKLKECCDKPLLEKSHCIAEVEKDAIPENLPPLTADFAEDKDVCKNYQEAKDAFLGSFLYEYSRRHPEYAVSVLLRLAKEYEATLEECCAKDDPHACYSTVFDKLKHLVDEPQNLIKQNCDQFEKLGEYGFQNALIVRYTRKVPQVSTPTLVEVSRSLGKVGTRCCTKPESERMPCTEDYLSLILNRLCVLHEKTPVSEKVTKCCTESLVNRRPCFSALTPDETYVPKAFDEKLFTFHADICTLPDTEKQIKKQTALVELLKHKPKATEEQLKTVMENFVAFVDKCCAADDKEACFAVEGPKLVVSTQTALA
T1 sequence (P02452 162-1218 limits assumed, chain 1 of 2): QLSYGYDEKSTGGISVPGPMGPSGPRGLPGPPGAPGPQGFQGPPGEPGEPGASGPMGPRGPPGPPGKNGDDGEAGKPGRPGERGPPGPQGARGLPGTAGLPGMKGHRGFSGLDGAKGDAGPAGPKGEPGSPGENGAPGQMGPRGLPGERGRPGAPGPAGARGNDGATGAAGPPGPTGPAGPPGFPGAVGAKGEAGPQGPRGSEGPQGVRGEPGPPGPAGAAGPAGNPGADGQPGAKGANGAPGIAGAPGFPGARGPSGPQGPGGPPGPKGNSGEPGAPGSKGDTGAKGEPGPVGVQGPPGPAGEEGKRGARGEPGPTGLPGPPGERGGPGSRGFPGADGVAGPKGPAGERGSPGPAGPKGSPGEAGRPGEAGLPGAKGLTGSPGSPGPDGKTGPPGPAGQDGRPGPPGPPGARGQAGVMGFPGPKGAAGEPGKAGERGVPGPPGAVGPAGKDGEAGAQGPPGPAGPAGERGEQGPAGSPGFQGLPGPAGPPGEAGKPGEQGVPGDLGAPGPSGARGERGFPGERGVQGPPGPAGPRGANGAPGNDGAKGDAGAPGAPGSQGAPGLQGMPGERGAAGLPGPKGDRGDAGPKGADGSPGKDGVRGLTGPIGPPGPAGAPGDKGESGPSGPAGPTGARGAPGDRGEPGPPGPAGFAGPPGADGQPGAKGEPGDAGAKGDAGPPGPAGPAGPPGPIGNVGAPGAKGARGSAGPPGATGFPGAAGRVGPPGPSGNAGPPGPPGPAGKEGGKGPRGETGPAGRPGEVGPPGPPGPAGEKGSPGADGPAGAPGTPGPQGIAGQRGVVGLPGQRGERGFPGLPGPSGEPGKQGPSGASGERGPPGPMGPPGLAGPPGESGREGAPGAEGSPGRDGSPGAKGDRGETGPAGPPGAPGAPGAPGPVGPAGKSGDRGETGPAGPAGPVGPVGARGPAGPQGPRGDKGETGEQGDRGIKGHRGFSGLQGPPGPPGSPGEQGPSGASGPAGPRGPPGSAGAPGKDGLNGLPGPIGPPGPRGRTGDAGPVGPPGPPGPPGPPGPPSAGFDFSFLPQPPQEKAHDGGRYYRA
T1 sequence (P08123 80-1119 limits assumed, chain 2 of 2): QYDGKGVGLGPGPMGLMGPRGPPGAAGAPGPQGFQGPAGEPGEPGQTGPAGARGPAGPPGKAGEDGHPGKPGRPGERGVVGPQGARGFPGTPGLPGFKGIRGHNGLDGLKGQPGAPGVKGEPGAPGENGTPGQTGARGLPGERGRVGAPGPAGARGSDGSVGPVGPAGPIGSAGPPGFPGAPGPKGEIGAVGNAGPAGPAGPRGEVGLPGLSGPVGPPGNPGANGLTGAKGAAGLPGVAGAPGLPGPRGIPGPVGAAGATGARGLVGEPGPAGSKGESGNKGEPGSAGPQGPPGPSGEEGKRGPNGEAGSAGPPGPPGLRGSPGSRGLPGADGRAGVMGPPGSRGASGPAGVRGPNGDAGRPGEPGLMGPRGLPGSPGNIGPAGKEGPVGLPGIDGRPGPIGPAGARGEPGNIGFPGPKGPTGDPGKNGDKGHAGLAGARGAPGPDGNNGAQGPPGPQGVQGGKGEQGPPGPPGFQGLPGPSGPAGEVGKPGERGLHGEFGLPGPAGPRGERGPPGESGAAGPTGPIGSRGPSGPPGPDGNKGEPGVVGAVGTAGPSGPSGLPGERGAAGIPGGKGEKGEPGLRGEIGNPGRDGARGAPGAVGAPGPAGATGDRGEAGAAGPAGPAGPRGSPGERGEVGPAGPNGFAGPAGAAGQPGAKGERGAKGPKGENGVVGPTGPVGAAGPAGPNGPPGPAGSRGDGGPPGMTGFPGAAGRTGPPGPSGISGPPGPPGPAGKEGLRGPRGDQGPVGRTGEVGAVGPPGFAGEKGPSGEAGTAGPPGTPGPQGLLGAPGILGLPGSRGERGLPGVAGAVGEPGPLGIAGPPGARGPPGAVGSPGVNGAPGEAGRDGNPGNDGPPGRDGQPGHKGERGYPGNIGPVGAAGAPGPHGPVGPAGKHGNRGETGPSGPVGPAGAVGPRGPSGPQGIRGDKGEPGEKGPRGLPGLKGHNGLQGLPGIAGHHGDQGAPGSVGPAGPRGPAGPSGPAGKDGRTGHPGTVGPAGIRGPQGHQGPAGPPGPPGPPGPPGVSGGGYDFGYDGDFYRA
T2 sequence (P02751 32-2477 limits assumed): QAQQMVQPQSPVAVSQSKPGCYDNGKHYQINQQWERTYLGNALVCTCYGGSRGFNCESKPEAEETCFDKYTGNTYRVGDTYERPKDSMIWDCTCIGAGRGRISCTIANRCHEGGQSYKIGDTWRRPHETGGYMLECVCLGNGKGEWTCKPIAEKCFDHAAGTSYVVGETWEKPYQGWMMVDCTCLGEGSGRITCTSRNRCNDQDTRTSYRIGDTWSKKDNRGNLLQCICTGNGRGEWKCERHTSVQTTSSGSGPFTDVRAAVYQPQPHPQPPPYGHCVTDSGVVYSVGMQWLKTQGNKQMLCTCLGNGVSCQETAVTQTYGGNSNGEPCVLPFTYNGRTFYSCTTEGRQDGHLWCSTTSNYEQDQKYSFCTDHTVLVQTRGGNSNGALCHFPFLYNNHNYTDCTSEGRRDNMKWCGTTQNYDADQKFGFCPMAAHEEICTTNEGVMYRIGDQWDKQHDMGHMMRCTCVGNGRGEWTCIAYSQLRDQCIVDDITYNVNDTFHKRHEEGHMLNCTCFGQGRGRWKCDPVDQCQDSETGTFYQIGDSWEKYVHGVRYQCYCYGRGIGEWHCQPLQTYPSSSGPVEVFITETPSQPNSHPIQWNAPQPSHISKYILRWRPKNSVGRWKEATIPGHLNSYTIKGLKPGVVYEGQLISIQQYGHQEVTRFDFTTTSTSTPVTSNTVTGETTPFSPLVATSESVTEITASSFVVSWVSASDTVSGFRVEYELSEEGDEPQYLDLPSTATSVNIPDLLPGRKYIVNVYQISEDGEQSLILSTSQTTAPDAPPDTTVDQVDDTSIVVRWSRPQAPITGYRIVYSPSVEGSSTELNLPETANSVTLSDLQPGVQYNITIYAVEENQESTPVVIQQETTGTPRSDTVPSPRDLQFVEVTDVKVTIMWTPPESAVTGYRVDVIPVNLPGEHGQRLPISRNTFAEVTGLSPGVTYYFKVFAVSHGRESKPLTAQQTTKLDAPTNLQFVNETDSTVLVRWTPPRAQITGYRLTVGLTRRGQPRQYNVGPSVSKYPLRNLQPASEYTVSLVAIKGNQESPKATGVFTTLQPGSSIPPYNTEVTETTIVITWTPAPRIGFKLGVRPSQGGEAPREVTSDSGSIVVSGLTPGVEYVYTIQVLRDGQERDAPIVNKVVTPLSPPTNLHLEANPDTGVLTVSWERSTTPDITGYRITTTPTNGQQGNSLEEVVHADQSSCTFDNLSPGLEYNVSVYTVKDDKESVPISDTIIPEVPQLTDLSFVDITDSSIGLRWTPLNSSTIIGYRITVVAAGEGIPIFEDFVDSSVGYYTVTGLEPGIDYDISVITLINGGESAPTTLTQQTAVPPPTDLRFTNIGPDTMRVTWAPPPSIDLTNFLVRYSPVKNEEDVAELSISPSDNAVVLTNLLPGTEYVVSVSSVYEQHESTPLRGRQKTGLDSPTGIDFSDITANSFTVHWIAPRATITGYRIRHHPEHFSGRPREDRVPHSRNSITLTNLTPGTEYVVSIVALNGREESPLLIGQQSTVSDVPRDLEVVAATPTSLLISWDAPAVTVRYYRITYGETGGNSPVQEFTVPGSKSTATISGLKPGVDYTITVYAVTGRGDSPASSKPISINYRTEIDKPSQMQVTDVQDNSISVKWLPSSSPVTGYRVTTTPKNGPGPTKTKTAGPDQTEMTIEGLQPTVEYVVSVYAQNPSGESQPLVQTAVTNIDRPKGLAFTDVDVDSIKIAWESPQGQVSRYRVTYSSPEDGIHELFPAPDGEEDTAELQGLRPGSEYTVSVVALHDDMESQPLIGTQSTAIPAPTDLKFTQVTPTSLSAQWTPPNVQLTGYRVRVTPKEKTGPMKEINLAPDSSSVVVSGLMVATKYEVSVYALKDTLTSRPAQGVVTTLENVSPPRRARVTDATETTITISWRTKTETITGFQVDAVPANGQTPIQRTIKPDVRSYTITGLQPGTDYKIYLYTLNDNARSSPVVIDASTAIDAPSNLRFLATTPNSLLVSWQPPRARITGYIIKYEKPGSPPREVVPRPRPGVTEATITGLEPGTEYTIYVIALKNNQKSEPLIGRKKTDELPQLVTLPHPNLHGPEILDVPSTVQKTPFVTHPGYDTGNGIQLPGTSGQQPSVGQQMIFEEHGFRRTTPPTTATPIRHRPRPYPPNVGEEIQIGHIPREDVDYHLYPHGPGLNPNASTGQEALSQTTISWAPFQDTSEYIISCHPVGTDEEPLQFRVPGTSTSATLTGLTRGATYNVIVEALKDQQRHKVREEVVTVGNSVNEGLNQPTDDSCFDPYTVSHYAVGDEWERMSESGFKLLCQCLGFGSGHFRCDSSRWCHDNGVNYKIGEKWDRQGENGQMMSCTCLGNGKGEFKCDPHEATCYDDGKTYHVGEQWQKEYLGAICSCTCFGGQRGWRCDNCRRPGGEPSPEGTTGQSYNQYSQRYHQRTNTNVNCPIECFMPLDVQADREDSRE

B1: non-conjugated horseradish peroxidase (enzyme, UniProt P00433 31-338, looked up)
chain: QLTPTFYDNSCPNVSNIVRDTIVNELRSDPRIAASILRLHFHDCFVNGCDASILLDNTTSFRTEKDAFGNANSARGFPVIDRMKAAVESACPRTVSCADLLTIAAQQSVTLAGGPSWRVPLGRRDSLQAFLDLANANLPAPFFTLPQLKDSFRNVGLNRSSDLVALSGGHTFGKNQCRFIMDRLYNFSNTGLPDPTLNTTYLQTLRGLCPLNGNLSALVDFDLRTPTIFDNKYYVNLEEQKGLIQSDQELFSSPNATDTIPLVRSFANSTQTFFNAFVEAMDRMGNITPLTGTQGQIRLNCRVVNSNS
notes: Negative control; also called HRPO; HRPO (negative control)
For the molecule B1, the OD492 in experiment [1] is 0.028 OD492; in experiment [2], 0.049 OD492; in experiment [3], 0.038 OD492; in experiment [4], 0.038 OD492.
